Patent US20250057951A1, “DISCERNIBLE CELL SURFACE PROTEIN VARIANTS OF CD117 FOR USE IN CELL THERAPY” (UNIVERSITÄT BASEL, priority 2021, published 2025)
Entries after “also recorded” stand apart in the source; their conditions may differ. One block for each molecule: values may come before it.

Key:
[1] = tested on: antibody Refmab #1; experiment: Octet screen: binding of CD117 D1-2-3 variants to captured Refmab #1; conditions: nm shift at end of association, top analyte concentration (500 nM)
Method: (§1) A more sophisticated analysis of binding to the elected variants was performed with antibody Refmab #1. Binding of Refmab #1 to wt and variants (analyte) was measured in an Octet system RED96e or R8 at 25° C. with shaking at 1,000 rpm using 1× kinetic buffer (Sartorius, PN: 18-1105). First, the elected variants were screened for their ability to bind Refmab #1 using three different concentrations of analytes. Antibody Refmab #1 was captured by Anti-Human Fc capture biosensor (AHC) (Sartorius, PN: 18-5060) for 300 s at 0.5 to 1 μg/mL. As an analyte, human CD117 wt and variants, containing only domains 1, 2 and 3 (CD117 D1-2-3), was titrated at 500 nM, 50 nM and 5 nM. Association and dissociation of the analyte to Refmab #1 was monitored for 300 s and 900 s, respectively. Reference subtraction was performed against buffer only wells. AHC tips were regenerated using 10 mM Gly-HCl pH 1.7. Data were analyzed using the Octet Data Analysis software HT 12.0. Data were fitted (when possible) to a 1:1 binding model. Kinetic rates ka and […] globally fitted. Binding level of the elected variants were compared to wild type and are shown as percent in FIG. 7. For this qualitative analysis, the binding level of the top analyte concentration at end of the association step was used.

[2] = biological target: antibody Refmab #1; experiment: Octet titration, steady state KD of CD117 D1-2-3 variants to Refmab #1; type: binding
Method: To further characterize binding of Refmab #1 to CD117 D1-2-3 variants E73K, E73L, E73R, E73Y, D121H, D121K, S123K and S123F, the analytes were titrated at 7 different concentrations (from 2000 nM to 5 nM). Antibody Refmab #1 was captured by AHC biosensors for 300 s at 0.5 to 1 μg/mL. Association and dissociation to Refmab #1 was extended to 600 s and 1000 s, respectively. Steady state analysis was performed.

[3] = tested on: TF-1 cells; experiment: SCF-dependent proliferation, SCF titration on TF-1 cells with CD117 variants (CellTiter-Glo); type: cell-based, human
Method: In another experiment, SCF-dependent proliferation of variants E73K, E73Y, D121K, S123F and S123K was compared against wildtype CD117. TF-1 cells were seeded at a cell concentration of 150 000 cells/ml in sterile, white cell culture treated plates with transparent bottom in RPMI+GlutaMax+10% FCS. Cells were treated with a titration of SCF. After 3 days of incubation a CellTiter-Glo 2.0 assay (Promega) was performed, luminescence was read in a luminometer (Envision plate reader) and EC50's was determined. Two different experiments with triplicates in each experiment were performed.

[4] = tested on: Refmab #1; experiment: Refmab #1 titration on engineered TF-1 cells (flow cytometry); type: binding; conditions: 5-0.00015 μg/mL antibody; 4° C.
Method: Binding of Refmab #1 was assessed in a flow cytometry assay. TF-1 cells were seeded at a cell concentration of 1,000,000 cells/ml in FACS Buffer (PBS+2% FCS+1 mM EDTA). After a Fc blocking using 1:20 diluted TruStain (BioLegend, #422302) in FACS buffer for 15 minutes at 4° C., cells were washed twice with FACS buffer. Subsequently, a SR-1 titration was added to the cells using 5-0.00015 μg/mL antibody for 30 minutes at 4° C. on a plate shaker. Cells were washed twice with FACS buffer and a secondary labelled antibody (IgG (H+L) Cross-Adsorbed Goat anti-Human, Alexa Fluor® 488, Invitrogen, A11013) was added to the cells for 30 minutes at 4° C. on a plate shaker. Cells were washed twice with FACS buffer, before adding 1:100 diluted solution of 7AAD staining (cell viability) in FACS buffer for a couple of minutes and analyzing the cells using the Novocyte Quanteon (Agilent).

[5] = tested on: Refmab #2; experiment: Octet: binding of CD117 variants to Refmab #2; conditions: qualitative Octet analysis
Method: as §1
A similar experiment to that in Example 7 was performed, but utilizing Refmab's #2 and #3.

[6] = biological target: T1, Biotinylated Avitag-hSCF (human, UniProt P21583 26-190, limits assumed, biotinylated Avitag); experiment: BLI (Octet), steady state: biotinylated SCF on streptavidin biosensor, CD117 D1-2-3 variant as analyte; KD relative to WT
T1 construct: Bought reagent; also called hSCF (Acros Biosystems SCF-H82E1)
Method: Association was monitored for 300 s and dissociation for 600 s. […] Reference subtraction was performed against buffer only wells. Biosensors were not regenerated and a new set of SA biosensors was used for each analyte. Data were analyzed using the Octet Data Analysis software HT 12.0. Steady state data analysis was performed due to the fast on/off nature of the interaction.

[7] = biological target: T2, SCF (Homo sapiens, UniProt P21583); experiment: Octet: binding of CD117 D1-2-3 variants to SCF; conditions: CD117 D1-2-3 constructs; steady state
T2 construct: purchased Acros Biosystems SCF-H82E1
Method: SCF binding is one function of CD117. SCF binding is important for the transmission of functional signals by CD117. Binding of the elected variants to SCF was measured on an Octet system RED96e or R8 at 25° C. with shaking at 1000 rpm using 1× Kinetic Buffer (Sartorius, PN: 18-1105). […] Domain 1, 2, 3 comprise the binding site for SCF. Domains 4 and 5 were used as a negative, non-binding control.
CD117 D1-2-3 wt and variants thereof are titrated with different concentrations from 1000 to 5 nM. Association was monitored for 300 s and dissociation for 600 s. Binding to human CD117 domain 4 and 5 (CD117 D4-5) was performed under the same conditions as non-binding control. Reference subtraction was performed against buffer only wells. Biosensors were not regenerated and a new set of SA biosensors was used for each analyte. Data were analyzed using the Octet Data Analysis software HT 12.0. Steady state data analysis was performed due to the fast on/off nature of the interaction.

[8] = biological target: human wild-type CD117 (human, UniProt P10721 26-976); experiment: cell-based or functional assay
[9] = tested on: CD117; experiment: Blocking of SCF-induced CD117 phosphorylation (Tyr719 ELISA), wild type TF-1 cells; type: cell-based, human; conditions: 0.5 ug/mL antibody or 500 nM avapritinib; 100 ng/ml SCF 5 minutes
Method: (§2) SCF-dependent phosphorylation is another function of CD117. SCF-dependent phosphorylation was measured using TF-1 cells expressing CD117 (as shown in previous experiments). TF-1 cells were seeded at a concentration of 1 million cells/ml in 1 ml of Medium (RPMI1640 supplemented with GlutaMAX+10% heat inactivated FBS) in a 6-well plate. Cells were treated with 0.5 ug/mL antibody or 500 nM avapratinib. Cells were then treated with 100 ng/ml recombinant human SCF (1 mg/ml PeproGMP® Recombinant Human SCF) for 5 minutes, before cell collection. Cells were washed with ice-cold PBS, before resuspending cells in 250 μL Lysis Buffer (Lysis buffer from Signaling containing Protease Inhibitor and Phosphatase Inhibitor). Cells were flash frozen in liquid nitrogen and thawed at 37° C. twice, before freezing them at −80° C. until further usage. Undiluted samples were thawed and processed according to the manufacturers protocol for the PathScan® Phospho-c-Kit (Tyr719) Sandwich ELISA Kit (Cell Signaling). Absorbance (OD_450 nm) was assessed using the Envision (Perkin Elmer).
(§3) TF-1 cells (wild type, and variants E73K, E73Y, D121K, S123F and S123K of CD117) were seeded at a concentration of 1 million cells/mL in 2 ml of Medium (RPMI1640 supplemented with GlutaMAX+10% heat inactivated FBS) in a 6-well plate. Cells were pre-treated with 0.5 μg/ml of antibodies Refmab #1-Ernie or Refmab #1-Bert for 30 minutes, before adding 100 ng/ml recombinant human SCF (1 mg/mL PeproGMP® Recombinant Human SCF) for 5 minutes. Cells were collected, washed once with ice-cold PBS and resuspended in 500 μL Lysis Buffer (Lysis buffer from Signaling containing Protease Inhibitor and Phosphatase Inhibitor). Cells were then flash frozen in liquid nitrogen and thawed at 37° C. twice, before freezing them at −80° C. until further usage. Undiluted samples were thawed and processed according to the manufacturers protocol for the PathScan Phospho-c-Kit (Tyr719) Sandwich ELISA Kit (Cell Signaling) or the Human c-Kit (CD117) ELISA Kit (Abcam). Absorbance (OD_450 nm) was assessed using the Envision (Perkin Elmer).

[10] = tested on: variants of CD117; experiment: Blocking of SCF-induced CD117 phosphorylation (Tyr719 ELISA), TF-1 cells with CD117 variants; type: cell-based, human; conditions: 0.5 μg/ml antibody 30 minutes; 100 ng/ml SCF 5 minutes; same for E73K, E73Y, S123F (data not shown)
Method: as §2, §3

[11] = titration of SCF, 3 days, TF-1 cells with the CD117 variant

Sequence of antibody Refmab #1 (as listed by the source, one chain of several): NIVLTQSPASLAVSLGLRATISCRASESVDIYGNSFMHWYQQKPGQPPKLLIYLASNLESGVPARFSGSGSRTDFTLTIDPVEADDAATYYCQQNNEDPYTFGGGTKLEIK
T2 sequence (P21583 26-273): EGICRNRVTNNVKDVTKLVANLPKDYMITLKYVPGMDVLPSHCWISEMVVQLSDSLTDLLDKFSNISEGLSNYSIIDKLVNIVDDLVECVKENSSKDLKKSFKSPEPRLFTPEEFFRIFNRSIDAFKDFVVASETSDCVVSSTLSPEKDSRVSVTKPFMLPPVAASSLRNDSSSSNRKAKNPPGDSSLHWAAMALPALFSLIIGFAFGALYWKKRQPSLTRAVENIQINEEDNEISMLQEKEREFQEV
T1 sequence (P21583 26-190 limits assumed): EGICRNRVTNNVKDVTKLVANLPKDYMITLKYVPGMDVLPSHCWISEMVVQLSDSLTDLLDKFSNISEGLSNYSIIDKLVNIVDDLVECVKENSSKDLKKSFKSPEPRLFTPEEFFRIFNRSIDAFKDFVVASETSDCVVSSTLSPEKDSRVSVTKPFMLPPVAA
Sequence of Refmab #1 (as listed by the source, one chain of several): as the sequence (as listed by the source, one chain of several) above

binding to Refmab #1 compared to wild type [1]: particular strong decrease in binding
Kd ([2]; 7 concentrations 2000-5 nM, steady state, two individual experiments): 691 nM
change of KD compared to wild type CD117 ([2]; KD variant vs wild type): around 700 fold
Molecule: E73Y: variant of human CD117 with substitution E73Y
EC50 Average ([3]; average of two experiments): 0.00401 ± 0.00037 µg/mL
EC50 Experiment #1 [3, 11]: 0.00437 µg/mL
EC50 Experiment #2 [3, 11]: 0.00364 µg/mL
Binding of Refmab #1 to TF-1 cells expressing the CD117 variant [4]: completely abolished

binding to Refmab #1 compared to wild type [1]: particular strong decrease in binding
binding to Refmab #2 compared to wild type CD117 [5]: strong decrease in binding
binding result [6]: binds
B1: R122H (receptor)
extracellular domains 1, 2 and 3: QPSVSPGEPSPPSIHPGKSDLIVRVGDEIRLLCTDPGFVKWTFEILDETNENKQNEWITEKAEATNTGKYTCTNKHGLSNSIYVFVRDPAKLFLVDHSLYGKEDNDTLVRCPLTDPEVTNYSLKGCQGKPLPKDLRFIPDPKAGIMIKSVKRAYHRLCLHCSVDQEGKSVLSEKFILKVRPAFKAVPVVSVSKASYLLREGEEFTVTCTIKDVSSSVYSTWKRENSQTKLQEKYNSWHHGDFNYERQATLTISSARVNDSGVFMCYANNTFGSANVTTTLEVVD
notes: not in the list MOLECULES; also called human CD117 D1-2-3 variant R122H

binding to Refmab #2 compared to wild type CD117 [5]: strong decrease in binding
B2: S239H: variant of human CD117 with substitution S239H (protein)
chain: QPSVSPGEPSPPSIHPGKSDLIVRVGDEIRLLCTDPGFVKWTFEILDETNENKQNEWITEKAEATNTGKYTCTNKHGLSNSIYVFVRDPAKLFLVDRSLYGKEDNDTLVRCPLTDPEVTNYSLKGCQGKPLPKDLRFIPDPKAGIMIKSVKRAYHRLCLHCSVDQEGKSVLSEKFILKVRPAFKAVPVVSVSKASYLLREGEEFTVTCTIKDVHSSVYSTWKRENSQTKLQEKYNSWHHGDFNYERQATLTISSARVNDSGVFMCYANNTFGSANVTTTLEVVDKG
KD increase of SCF binding compared to wild type CD117 [7]: less than three-fold; also recorded: less than four-fold

binding to Refmab #2 compared to wild type CD117 [5]: strong decrease in binding
B3: S239K: variant of human CD117 with substitution S239K (protein)
chain: QPSVSPGEPSPPSIHPGKSDLIVRVGDEIRLLCTDPGFVKWTFEILDETNENKQNEWITEKAEATNTGKYTCTNKHGLSNSIYVFVRDPAKLFLVDRSLYGKEDNDTLVRCPLTDPEVTNYSLKGCQGKPLPKDLRFIPDPKAGIMIKSVKRAYHRLCLHCSVDQEGKSVLSEKFILKVRPAFKAVPVVSVSKASYLLREGEEFTVTCTIKDVKSSVYSTWKRENSQTKLQEKYNSWHHGDFNYERQATLTISSARVNDSGVFMCYANNTFGSANVTTTLEVVDKG

IC50 in a SCF-dependent proliferation assay on HSPC's [8]: 0.00521 µg/mL
IC50 in a SCF-dependent proliferation assay on TF-1 cells [8]: 0.0176 µg/mL
B4: Refmab #1-Ernie (antibody, V domains shown)
VH: QVQLQQPGAELVKPGASVKMSCKASGYTFTSYNMHWVKQTPGQGLEWIGVIYSGNGDTSYNQKFKGKATLTADKSSSTAYMQINSLTSEDSAVYYCARERDTRFGNWGQGTLVTVSA
VL: EIVLTQSPSSLSASVGDRVTITCRASESVDIYGESFMHWYQQKPGKAPKLLIYLASNLESGVPSRFSGSGSGTDFTLTISSLQPEDFATYYCQQNNEEPYTFGQGTKLEIKR

IC50 in a SCF-dependent proliferation assay on HSPC's [8]: 0.0313 µg/mL
IC50 in a SCF-dependent proliferation assay on TF-1 cells [8]: 0.0441 µg/mL
B5: Refmab #1-Bert (antibody, V domains shown)
VH: QVQLQQPGAELVKPGASVKMSCKASGYTFTSYNMHWVKQTPGQGLEWIGVIYSGNGDTSYNQKFKGKATLTADKSSSTAYMQINSLTSEDSAVYYCARERDTRFGNWGQGTLVTVSA
VL: EIVLTQSPSSLSASVGDRVTITCRASESVDIYGESFMHWYQQKPGKAPKLLIYLASNLESGVPSRFSGSGSGTDFTLTISSLQPEDFATYYCQQNKEEPYTFGQGTKLEIKR

B6: Refmab #1-Ernie: improved version of Refmab #1, VH SEQ ID 15, VL SEQ ID 62 (antibody, V domains shown)
VH: QVQLQQPGAELVKPGASVKMSCKASGYTFTSYNMHWVKQTPGQGLEWIGVIYSGNGDTSYNQKFKGKATLTADKSSSTAYMQINSLTSEDSAVYYCARERDTRFGNWGQGTLVTVSA
VL: EIVLTQSPSSLSASVGDRVTITCRASESVDIYGESFMHWYQQKPGKAPKLLIYLASNLESGVPSRFSGSGSGTDFTLTISSLQPEDFATYYCQQNNEEPYTFGQGTKLEIKRTV
modifications: Refmab #1 VH
blocking of SCF-induced phosphorylation, wild type cells [9]: blocked
blocking of SCF-dependent CD117 phosphorylation, D121K and S123K variants [10]: unaffected
